Results taken from US20240254255A1 (Regeneron, published 2024).

B1: BsAb1-MCC-Maytansinoid A (bispecific antibody, human IgG4 S228P, kappa)
heavy 1: EVQLVESGGGLAQPGGSLRLSCAASGFSISDYEIHWVRQVPGKGLEWVSGIGSAGNTYYPGAVKGRFTISRENAKNSLYLQVNSLTVGDTAVYYCARVWSPLYYFGLDVWGQGTTVTVSSASTKGPSVFPLAPCSRSTSESTAALGCLVKDYFPEPVTVSWNSGALTSGVHTFPAVLQSSGLYSLSSVVTVPSSSLGTKTYTCNVDHKPSNTKVDKRVESKYGPPCPPCPAPEFLGGPSVFLFPPKPKDTLMISRTPEVTCVVVDVSQEDPEVQFNWYVDGVEVHNAKTKPREEQFNSTYRVVSVLTVLHQDWLNGKEYKCKVSNKGLPSSIEKTISKAKGQPREPQVYTLPPSQEEMTKNQVSLTCLVKGFYPSDIAVEWESNGQPENNYKTTPPVLDSDGSFFLYSRLTVDKSRWQEGNVFSCSVMHEALHNRFTQKSLSLSPGK
heavy 2: not shown
light: not shown
modifications: SMCC-DM1 (M1) conjugate, attachment residues not stated
notes: Antibody-drug conjugate of BsAb1; also called BsAb1 conjugated with M1 (SMCC-DM1)
B2: BsAb1-Tubulysin 1A-LP (Anti HER2 BsAb1-PEG3-N3-Tubulysin 1A-LP) (bispecific antibody, human IgG4 S228P, kappa)
heavy 1: B1 heavy 1
heavy 2: not shown
light: not shown
modifications: deglycosylated (PNGase F); Q295 carries azido-PEG3-amine clicked to Tubulysin 1A-LP
notes: Site-specific antibody-drug conjugate of BsAb1; also called HER2xHER2-M830
B3: H4H17325D (BsAb1), HER2 x HER2 bispecific antibody (bispecific antibody, human IgG4 S228P, kappa)
heavy 1: B1 heavy 1
heavy 2: not shown
light: not shown
notes: Human IgG4 bispecific with a common light chain; also called bispecific antibody 1
B4: BsAb1-CAMPT1 (Anti-HER2 BsAb1-substituted alkyl amine-(N3)2-CAMPT-1-LP) (bispecific antibody, human IgG4 S228P, kappa)
heavy 1: B1 heavy 1
heavy 2: not shown
light: not shown
modifications: Q295 carries a bis azido-alkyl substituted amine (bisSP1) clicked to CAMPT-1-LP
notes: Antibody-drug conjugate of BsAb1; also called BsAb1-Camp1
B5: BsAb2-Tubulysin 1A-LP (Anti HER2 BsAb2-PEG3-N3-Tubulysin 1A-LP) (bispecific antibody, human IgG4 S228P, kappa)
heavy 1: QVQLVESGGGVVQPGRSLRLSCEASGFTFSGYALHWVRQAPGKGLEWVTVISYDGSDKFYADSVKGRFTISRDNSKNTLYLQMNSLRTEDTALYYCAKDWGTYHWNYGHYNYVMDVWGQGTTVTVSSASTKGPSVFPLAPCSRSTSESTAALGCLVKDYFPEPVTVSWNSGALTSGVHTFPAVLQSSGLYSLSSVVTVPSSSLGTKTYTCNVDHKPSNTKVDKRVESKYGPPCPPCPAPEFLGGPSVFLFPPKPKDTLMISRTPEVTCVVVDVSQEDPEVQFNWYVDGVEVHNAKTKPREEQFNSTYRVVSVLTVLHQDWLNGKEYKCKVSNKGLPSSIEKTISKAKGQPREPQVYTLPPSQEEMTKNQVSLTCLVKGFYPSDIAVEWESNGQPENNYKTTPPVLDSDGSFFLYSRLTVDKSRWQEGNVFSCSVMHEALHNRFTQKSLSLSPGK
heavy 2: not shown
light: not shown
modifications: deglycosylated (PNGase F); Q295 carries azido-PEG3-amine clicked to Tubulysin 1A-LP
notes: Site-specific antibody-drug conjugate of BsAb2; also called H4H17087D-Tubulysin 1A-LP
B6: BsAb2-CAMPT1 (bispecific antibody, human IgG4 S228P, kappa)
heavy 1: B5 heavy 1
heavy 2: not shown
light: not shown
modifications: Q295 carries a bis azido-alkyl substituted amine (bisSP1) clicked to CAMPT-1-LP
notes: Antibody-drug conjugate of BsAb2; also called BsAb2-Camp1
B7: BsAb2-MCC-Maytansinoid A (bispecific antibody, human IgG4 S228P, kappa)
heavy 1: B5 heavy 1
heavy 2: not shown
light: not shown
modifications: SMCC-DM1 (M1) conjugate, attachment residues not stated
notes: Antibody-drug conjugate of BsAb2; also called BsAb2 conjugated with M1 (SMCC-DM1)

How the values were obtained:
[1] = target: T1, human HER2 (ErbB2) expressed on the surface of cell lines and primary cells (human, UniProt P04626 23-1255); assay: cell-based or functional assay
[2] = target: T2, hErbB2-MMH (human HER2 ectodomain with C-terminal myc-myc-hexahistidine tag) (human, UniProt P04626 23-652); assay: SPR (MASS-2), ADC captured on anti-human Fc, hErbB2-MMH in solution, 25 C
T2 construct: also called Her2 ECD; Her2 protein
Method: (§1) Equilibrium dissociation constants (KD values) for hErbB2.mmh binding to anti-HER2×HER2 antibodies conjugated with either M830 or M1 were determined using a real-time surface plasmon resonance biosensor assay on a MASS-2 instrument. The MASS-2 sensor surface was derivatized by amine coupling with a monoclonal mouse anti-human Fc antibody (REGN2567) to capture anti-HER2×HER2 ADC and parent unmodified antibodies expressed with human constant regions. […] Human hErbB2 was prepared in-house expressing a C-terminal myc-myc-hexahistidine tag (hErbB2-MMH). […] Association of hErbB2-MMH to each of the captured ADCs and monoclonal antibodies was monitored for 3 minutes. Subsequently, hErbB2-MMH dissociation was monitored for 10 minutes in HBS-EP running buffer. Anti-human Fc surface was regenerated by a brief injection of 20 mM H₃PO₄. All binding kinetic experiments were performed at 25° C.
Kinetic association (kₐ) and dissociation (Kd) rate constants were determined by fitting the real-time sensorgrams to a 1:1 binding model using Scrubber 2.0c curve fitting software. All sensorgrams were double referenced by subtracting buffer injection sensorgram signal from the corresponding analyte sensorgram, thereby removing artifacts caused by dissociation of the antibody from the capture surface. Binding dissociation equilibrium constants (KD) and dissociative half-lives (t½) were calculated from the kinetic rate constants as: […]

[3] = target: T1, human HER2 (ErbB2) expressed on the …; assay: cell-based or functional assay; remark: listed apart in the source
[4] = target: T2, hErbB2-MMH (human HER2 ectodomain with …); assay: SPR (MASS-2), antibody captured on anti-human Fc, hErbB2-MMH in solution, 25 C
Method: as §1
Kinetic association (kₐ) and dissociation (Kd) rate constants were determined by fitting the real-time sensorgrams to a 1:1 binding model using Scrubber 2.0c curve fitting software. […] Binding dissociation equilibrium constants (KD) and dissociative half-lives (t½) were calculated from the kinetic rate constants as: […]

Binder | IC50 of cell killing, JIMT1 cells (Cell Titer Glow, 6 days) [1] | IC50 of cell killing, MDAMB361 cells (Cell Titer Glow, 6 days) [1] | IC50 of cell killing, MDAMB453 cells (Cell Titer Glow, 6 days) [1] | IC50 of cell killing, SKBR3 cells (Cell Titer Glow, 6 days) [1] | IC50 of cell killing, ZR751 cells (Cell Titer Glow, 6 days) [1] | Antigen Bound (RU) [2] | Kd [2] | t1/2 [2] | IC50 of cell killing, MDAMB231 cells (Cell Titer Glow, 6 days) [3] | IC50 of cell killing, MDAMB468 cells (Cell Titer Glow, 6 days) [3] | IC50 of cell killing, T47D cells (Cell Titer Glow, 6 days) [3] | IC50 of cell killing, primary breast (mammary epithelial) cells (Cell Titer Glow, 6 days) [3] | IC50 of cell killing, primary lung epithelial cells (Cell Titer Glow, 6 days) [3] | IC50 of cell killing, primary myocardial cells (Cell Titer Glow, 6 days) [3] | IC50 of cell killing, primary prostate epithelial cells (Cell Titer Glow, 6 days) [3] | t1/2 [4] | koff [2] | kon [2]
B1 | 7 nM | 0.05 nM | 0.1 nM | 0.02 nM | 6 nM | 93.6 RU | 0.512 nM | 32.7 min |  |  |  |  |  |  |  |  |  | 
B2 | 0.07 nM | 0.003 nM | 0.02 nM | 0.004 nM | 0.06 nM | 114 RU |  | 33.5 min | 40 nM | 50 nM | 8 nM | 25 nM | > 67 nM | 9 nM | 30 nM |  |  | 
B3 |  |  |  |  |  |  |  |  |  |  |  |  |  |  |  | 29 min |  | 
B4 |  |  |  |  |  | 117 RU | 0.472 nM | 41 min |  |  |  |  |  |  |  |  |  | 
B5 |  |  |  |  |  | 72.7 RU | ≤ 0.0431 nM | ≥ 1160 min | 50 nM | 67 nM | 8 nM | 20 nM | > 67 nM | 30 nM | > 67 nM |  | ≤ 1e-05 s⁻¹ | 232000 M⁻¹ s⁻¹
B6 |  |  |  |  |  | 77 RU | ≤ 0.0388 nM | 1160 min |  |  |  |  |  |  |  |  | ≤ 1e-05 s⁻¹ | 258000 M⁻¹ s⁻¹
B7 |  |  |  |  |  | 82.8 RU | 0.0469 nM | 1130 min |  |  |  |  |  |  |  |  | 1.02e-05 s⁻¹ | 218000 M⁻¹ s⁻¹
